B1: Synaptogenesis protein syg-2 (Caenorhabditis elegans), Q9U3P2 (parent)
chain: MLSQAILLWLFGSIHISSQFFLESPSNLSTIAGESITFRCSAEKSPEPIVYSQWKSNTGSLLGYHQEGILPGHQGRFSYIKQNAEELHLKITHVNLDDDGEYECQMLHPEEGPIRAKSFLNIIVPPQLVYFSNYQPNSIIAVKENTPLNITCVVPNVKPEPEVLWYMDGKVMSRDVKQASTPHLNKTFTVYTSLVVQSDRNDHGKVITCEAFQKETDIRITTNTTLDVLFPPSDPTVEILRNPSALRSGDNVTIACSVTGGNPPPDVFWYHENKRLQSHSTLDTRSKEIKNIYSFIASQNDNMAEYECRANNSRTGNPKRKAMKLEVNYPPASVELFGESNIRYGSSANIQCKSLPSNPASQITWIINGRSVPTPTQREFVVENGIVSSSNVSVHSNELSVEAHQINVECMATNPEGSSAKQHVIKIIAPPKAPIITGLEDRKFFEGDIVNVTCEAQGGNPLAELSWYRGSEKHLVKGRKKMKWSQVKKKLVMSLLCLCEVVIMNFFRFSKNVFYFFRFTLFIECGVNGAHNEVAGFSSYSTLALRVDRTMNTQRLKCEATNAALDEPLIESQYLSVYYPPRRVLIRPADSGDQRLLVGKSARLVCGTLSSNPAAHISWQFSRATDDNKVHLGDVSLNETTRDNGFNVENVLSFTPTEEYDGTVVHCIANHPEWKHSVNTSFPLNVMYPPKMLVNDPVTVVMSEGDSFKENLTVRGNPAISLWQWRKNGVPFDHTIGRVFARGAVLSGKQLLSTDAGVYTLTATNSVGSTNITIKLAVEYSARITSISTPVIAATGDTVLLECEADGEPSKANMIHWYKNGEILAAQHRGHKKAILRLNATEQQSGEYTCKADNGIGVPAEGQTFLLVNSAPRVLPVARYAKTAGILGGVAKARCKVYAVPTVEFVWEKDEQLIKKNSSKYSIVNTQIDYSTYESTLWIKNIVPDDYTKKVKCIARNSFGTDHLSIPIIPPTHPDEPFNLTMTNSTLNTISVAWEPRFDGGSDQIFEVKYRRQNDDLIHLVNTTHTNLRLSGLATANTYFFQIRSINARGFASSWTSPVIFATLNEDGVNVAMIRNEKLKLTTWIPYILIFIVLFMLLNVVICCFVCNRTKKRKLREKTEMARTAINGGDVRQVQMYGTMMGNDGMSRRDIDDRPEMSEDEHSVRTMIEVSPNGYMQPIEPMLYESTGLLEYDYQTRSYMGSSQGTRSMTYANVPYPEPPQPSYHSNWNSLQRQSNNNTSPQHHLSTFINPNMGVRAGPINYAQLDGDLV
partner: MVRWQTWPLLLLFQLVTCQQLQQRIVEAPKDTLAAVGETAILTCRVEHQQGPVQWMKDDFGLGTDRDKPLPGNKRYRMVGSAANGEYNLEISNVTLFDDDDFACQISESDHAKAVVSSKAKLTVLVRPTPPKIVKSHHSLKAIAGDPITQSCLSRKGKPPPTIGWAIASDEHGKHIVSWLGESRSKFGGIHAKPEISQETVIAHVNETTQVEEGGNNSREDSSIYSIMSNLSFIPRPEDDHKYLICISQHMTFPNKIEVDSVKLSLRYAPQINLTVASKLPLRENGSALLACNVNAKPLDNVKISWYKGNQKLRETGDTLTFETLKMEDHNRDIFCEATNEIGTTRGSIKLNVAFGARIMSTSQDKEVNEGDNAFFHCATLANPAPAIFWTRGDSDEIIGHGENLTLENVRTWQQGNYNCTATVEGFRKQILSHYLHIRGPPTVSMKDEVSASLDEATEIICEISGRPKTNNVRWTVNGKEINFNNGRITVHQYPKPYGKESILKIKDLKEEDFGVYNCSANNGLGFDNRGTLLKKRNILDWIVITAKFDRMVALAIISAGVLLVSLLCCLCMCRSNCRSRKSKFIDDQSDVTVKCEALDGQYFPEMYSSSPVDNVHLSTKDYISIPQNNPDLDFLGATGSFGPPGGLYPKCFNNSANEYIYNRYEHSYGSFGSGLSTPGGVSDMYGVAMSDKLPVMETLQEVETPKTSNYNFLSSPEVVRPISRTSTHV
B2: Synaptogenesis protein syg-1 (Caenorhabditis elegans), B1Q236 (parent)
chain: B1 partner
partner: B1 chain

Variants of: B1
Settings: with syg1_caeel syg-1, B1Q236

| effect of a mutation on the interaction | Variant |
| --- | --- |
| decreasing interaction strength | Q53A |
| disrupting interaction strength | Q105A |
| decreasing interaction strength | L61A |
| decreasing interaction strength | R115A |

Variants of: B2
Settings: with syg2_caeel syg-2, Q9U3P2

| effect of a mutation on the interaction | Variant |
| --- | --- |
| decreasing interaction strength | Q54A |
| decreasing interaction strength | Q105A |
| disrupting interaction strength | F60A |
| disrupting interaction strength | Q54A;F60A |
| disrupting interaction strength | Q54A;M56A;F60A;S107A |

Source: IntAct's records for PubMed 24485456
